From publication PMC4720395, “Improvements in Glucose Sensitivity and Stability of Trichoderma reesei β-Glucosidase Using Site-Directed Mutagenesis” (PLoS ONE, 2016) come the findings set out here.

The target in data set [1] is T1, Cel1A (Bgl II) (Trichoderma reesei, UniProt O93785, L2V).
T1 construct: gene bgl2; forward primer with NcoI site encodes N-terminus MVPKDFQW; GH1
T1 sequence (O93785 1-466 L2V): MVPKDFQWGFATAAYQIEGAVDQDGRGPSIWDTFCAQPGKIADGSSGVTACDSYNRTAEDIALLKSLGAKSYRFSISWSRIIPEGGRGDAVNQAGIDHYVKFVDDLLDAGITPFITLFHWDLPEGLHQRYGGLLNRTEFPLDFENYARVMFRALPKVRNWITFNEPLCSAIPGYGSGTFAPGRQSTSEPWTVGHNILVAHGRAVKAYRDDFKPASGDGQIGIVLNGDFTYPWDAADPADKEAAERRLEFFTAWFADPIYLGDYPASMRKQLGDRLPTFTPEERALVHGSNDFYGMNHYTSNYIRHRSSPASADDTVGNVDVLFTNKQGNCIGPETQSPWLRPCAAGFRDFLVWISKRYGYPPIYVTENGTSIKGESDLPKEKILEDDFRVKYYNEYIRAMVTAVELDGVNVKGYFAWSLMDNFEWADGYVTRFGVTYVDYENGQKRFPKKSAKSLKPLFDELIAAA
Kind of data set: Dixon plot, pNPG hydrolysis, p-nitrophenol absorbance […] nm. It is filed as biochemical. The note with it: pNPG substrate (low concentrations), 100 mM acetate pH 5.5, 30°C; competitive; read-out: WT.

The target of data set [2] is T2, Cel1A (Bgl II) (Trichoderma reesei, UniProt O93785, L2V/L167W/P172L).
T2 construct: gene bgl2; forward primer with NcoI site encodes N-terminus MVPKDFQW; GH1
T2 sequence (O93785 1-466 L2V/L167W/P172L): T1 sequence (O93785 1-466 L2V) with L167W, P172L
The data set is described as above. It is filed as biochemical. The note with it: pNPG substrate (low concentrations), 100 mM acetate pH 5.5, 30°C; competitive; glucose also stimulates at higher pNPG; read-out: WT.

Substrate in the data set “purified protein”: O=[N+]([O-])c1ccc(O[C@@H]2O[C@H](CO)[C@@H](O)[C@H](O)[C@H]2O)cc1
Kind of data set: purified protein. The format is biochemical, Trichoderma reesei. The note with it: 100 mM acetate pH 5.5, 30°C, no glucose.

Where [3] appears, read: substrate inhibition above 0.25 mM pNPG.

Numbering of substitutions follows the chain as printed. Names and notes keep the numbering of the source.

For `OC[C@H]1OC(O)[C@H](O)[C@@H](O)[C@@H]1O` (stereo partly drawn) [glucose], the Ki at Cel1A (Bgl II) [1] and at Cel1A (Bgl II) [2] was 50 mM each time.

B1: Cel1A (Bgl II) (Trichoderma reesei; L167W/L2V/P172L) (protein)
chain: T1 sequence (O93785 1-466 L2V) with L167W, P172L
notes: forward primer with NcoI site encodes N-terminus MVPKDFQW; GH1
For B1, in the data set “purified protein” (setting [3]), the Km (commonly the concentration of substrate that gives half-maximal velocity) is 230 ± 10 µM and the Vmax (as a rule, the rate approached at saturating substrate) was found to be 13.3 µmol/min/mg.

B2: Cel1A (Bgl II) (Trichoderma reesei; L2V) (protein)
chain: T1 sequence (O93785 1-466 L2V)
notes: as for B1
As to B2, in “purified protein”, the Km came to 2480 ± 750 µM and the Vmax is 7.7 µmol/min/mg.
